Assay [1] concerns the target T1, recombinant PDL-1-mFc protein (UniProt Q9NZQ7 19-238).
T1 construct: Obtained from Kelun-Biotech; only the UniProt entry is named; not shown: mFc part
As to the kind of experiment: ELISA: PDL-1-mFc coated, anti-human IgG-HRP detection. On the procedure: On the next day, the solution in the wells was discarded, and the wells were washed with a washing buffer (a phosphate buffer solution containing 0.05% Tween-20) for one time and the solution in the wells was discarded. PBS solution containing 2% BSA was added at 100 μl/well and the wells were blocked at […] for 2 hours. Then the solution in the well was discarded. […] The plate was incubated at 37° C. for 2 hours, then the solution in the wells was discarded and the wells were washed for three times. HRP conjugated goat anti-human IgG(H+L) was added into the plate at 100 μl/well and the plate was incubated at 37° C. for 1 hour. TMB solution was added to the wells at a concentration of 100 μl/well, and the reaction was carried out at room temperature for about 5 minutes. A stop solution at 100 μl/well was added to the plate, and then the plate was put into an ELISA plate reader reading OD450 absorbance values.
On the technique in general: In an ELISA, binding on a coated surface is turned into a signal by an enzyme label.

The target of assay [2] is T2, recombinant CD16a (Val) protein (UniProt P08637 17-208, limits assumed).
T2 construct: Purchased from Sino Biological Inc. '(Val)' is printed without the position of the valine
As to the kind of experiment: ELISA: CD16a (Val) coated, antibody crosslinked with goat F(ab)2 anti-human kappa. On the procedure: The recombinant CD16a (Val) protein (purchased from Sino Biological Inc.) was added into a 96-well enzyme labeled plate (purchased from Thermo) at 100 ng/well, and coating was carried out at 4° C. overnight. On the next day, the solution in the wells was discarded, the wells were washed with a washing buffer solution (a phosphate buffer solution containing 0.05% Tween-20) for one time and the solution in the wells was discarded. PBS solution containing 2% BSA was added at 100 μl/well for blocking the well at 25° C. for 2 hours, and then solution in the wells was discarded. […] The plate was incubated at 25° C. for 2 hours, then the solution in the wells was discarded and the well was washed with the washing buffer for three times. […] Then solution in the well was discarded and the well was washed with the washing buffer for five times. TMB solution was added to the well at a concentration of 100 μl/well, and the reaction was carried out at room temperature for about 30 minutes. Stop solution at 100 μl/well was added to the plate, and then the plate was put into an ELISA instrument to read OD450 absorbance values.

Assay [3] has as its target T1, recombinant PDL-1-mFc protein. Nature of the assay: competitive ELISA: PD1-hFc coated, antibody premixed with PDL-1-mFc, anti-mouse IgG-HRP detection; competitor PD1-hFc. On the procedure: The recombinant PD1-hFc protein (purchased from Sino Biological Inc.) was added into a 96-well enzyme labeled plate (purchased from Thermo) at 100 ng/well, and the coating was carried out at 4° C. overnight. On the next day, the solution in the wells was discarded and wells were washed one time with washing buffer (phosphate buffer solution containing 0.05% Tween-20) and the solution in the wells was discarded again. PBS solution containing 2% BSA was added at 100 μl/well for blocking the wells at 37° C. for 2 hours, and then the solution in the wells was discarded. […] The plate was incubated at 37° C. for 2 hours, then the solution in the wells was discarded and the well was washed with the washing buffer for three times. HRP conjugated goat anti-mouse IgG(H+L) (purchased from Thermo) solution was added into the plate at 100 μl/well and the plate was incubated at 37° C. for 1 hour. TMB solution was added to the wells, and the reaction was carried out at room temperature for about 5 minutes. Stop solution was added to the plate, and then the plate was put into an ELISA instrument in order to read an OD450 light absorbance value.

Assay [4] concerns the target PDL-1 expressed on CHO-PDL-1-CD3L cells (UniProt Q9NZQ7 19-290, limits assumed). As to the kind of experiment: cell-based or functional assay.
Assay [5] concerns the target T1, recombinant PDL-1-mFc protein. As to the kind of experiment: bridging ELISA for both antigens at once: PDL-1-mFc coated, antibody titrated, then 1.5 ug/ml CTLA-4-His, anti-His-HRP detection. On the procedure:
On the next day, the solution in the wells was discarded, wells were washed one time with washing buffer (phosphate buffer solution containing 0.05% Tween-20) and solution in the well was discarded again. PBS solution containing 2% BSA was added at 100 μl/well for blocking the wells at 37° C. for 2 hours, and then solution in the wells was discarded. The recombinant bispecific antibodies were diluted 5 folds serially at a start concentration of 100000 ng/mL to get 11 concentration gradients, and were added to the wells at 100 μl/well. The plate was incubated at 37° C. for 2 hours, then the solution in the wells was discarded and wells were washed with the washing buffer for three times. 1.5 ug/ml of the CTLA-4-His protein was added into the plate at 100 μl/well, and plate was incubated at 37° C. for 2 hours. Then the solution in the wells was discarded and wells were washed with the washing buffer for three times. HRP conjugated goat anti-his (purchased from BioLegend) was added into the plate and the plate was incubated at 37° C. for 1 hour. TMB solution was added to the wells, and the reaction was carried out at room temperature for about 5 minutes. Stop solution was added to the plate, and then the plate was put into an ELISA plate reader to read OD450 absorbance values.

The target in assay [6] is T3, recombinant CTLA-4-His protein (UniProt P16410 36-161, limits assumed).
T3 construct: Obtained from Kelun-Biotech; only the UniProt entry is named; also called CLTA-4-His; not shown: His tag
T3 sequence (looked up): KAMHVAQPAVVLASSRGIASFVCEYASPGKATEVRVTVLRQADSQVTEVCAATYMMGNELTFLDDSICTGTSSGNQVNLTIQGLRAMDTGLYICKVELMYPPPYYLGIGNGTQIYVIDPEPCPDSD
Nature of the assay: ELISA: CTLA-4-His batch 2 coated, anti-human IgG-HRP detection. On the procedure: (§1) Two batches of recombinant CLTA-4-His proteins (obtained from Kelun-Biotech, Uniport No.: P16410) were diluted with PBS respectively, the dilutes of CTLA-4-His at 100 μl/well were added into a 96-well ELISA plate, and coating was carried out at 4° C. overnight. On the next day, the solution in the wells was discarded, and wells were washed one time with washing buffer and the solution in the wells was discarded again. PBS solution containing 2% BSA was added at 100 μl/well for blocking the well at 37° C. for 2 hours, and then the solution in the well was discarded. […] The HRP conjugated goat anti-human IgG (H+L) solution was added into the plate and the plate was incubated at 37° C. for 1 hour. TMB solution was added to the well, and the reaction was carried out at room temperature for about 8 minutes. The stop solution was added to the plate, and then the plate was put into an ELISA plate reader to read OD450 absorbance values. Fitting curves were made by the means of the experimental data, as shown in FIG. 4A and FIG. 4B, and EC50 was calculated.

Assay [7] deals with T3, recombinant CTLA-4-His protein. Nature of the assay: ELISA: CTLA-4-His coated; reference AB02. The method, then:
as §1

For assay [8] the target is unchanged. Nature of the assay: ELISA: CTLA-4-His batch 1 coated, anti-human IgG-HRP detection. On the procedure:
as §1

T2 sequence (P08637 17-208 F176V limits assumed): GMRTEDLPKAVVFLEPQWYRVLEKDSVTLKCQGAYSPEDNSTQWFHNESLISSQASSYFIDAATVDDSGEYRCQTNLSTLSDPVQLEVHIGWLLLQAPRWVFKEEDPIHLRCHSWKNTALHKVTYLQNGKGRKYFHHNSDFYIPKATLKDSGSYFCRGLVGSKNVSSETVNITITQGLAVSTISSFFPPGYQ
Sequence of PDL-1 expressed on CHO-PDL-1-CD3L cells (Q9NZQ7 19-290 limits assumed): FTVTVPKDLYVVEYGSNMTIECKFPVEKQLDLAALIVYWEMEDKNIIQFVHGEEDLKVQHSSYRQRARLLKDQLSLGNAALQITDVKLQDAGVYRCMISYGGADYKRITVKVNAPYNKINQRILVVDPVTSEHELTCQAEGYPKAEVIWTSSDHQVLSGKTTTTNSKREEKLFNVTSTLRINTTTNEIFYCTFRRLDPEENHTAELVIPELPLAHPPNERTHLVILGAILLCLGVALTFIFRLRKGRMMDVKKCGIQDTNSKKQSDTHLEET
T1 sequence (Q9NZQ7 19-238): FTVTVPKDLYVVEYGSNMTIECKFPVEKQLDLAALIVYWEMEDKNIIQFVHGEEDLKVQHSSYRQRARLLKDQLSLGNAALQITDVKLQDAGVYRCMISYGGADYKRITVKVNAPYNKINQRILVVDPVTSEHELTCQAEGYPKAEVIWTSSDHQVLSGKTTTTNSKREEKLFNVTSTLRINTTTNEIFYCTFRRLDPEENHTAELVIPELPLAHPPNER

B1: anti-PDL-1 parental antibody AB01 (antibody, human IgG1, kappa)
heavy: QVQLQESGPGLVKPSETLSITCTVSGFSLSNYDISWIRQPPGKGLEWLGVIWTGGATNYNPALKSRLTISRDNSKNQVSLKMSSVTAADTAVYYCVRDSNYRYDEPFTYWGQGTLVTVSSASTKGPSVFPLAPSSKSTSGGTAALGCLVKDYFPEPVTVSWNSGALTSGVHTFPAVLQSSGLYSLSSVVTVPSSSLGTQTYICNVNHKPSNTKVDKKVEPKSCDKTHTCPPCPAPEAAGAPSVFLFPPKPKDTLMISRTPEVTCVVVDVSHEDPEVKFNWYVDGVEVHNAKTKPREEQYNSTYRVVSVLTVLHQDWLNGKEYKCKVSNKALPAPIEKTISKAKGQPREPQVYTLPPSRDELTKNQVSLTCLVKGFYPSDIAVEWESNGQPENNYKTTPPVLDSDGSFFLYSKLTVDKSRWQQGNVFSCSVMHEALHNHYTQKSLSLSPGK
light: EIVLTQSPDTLSVTPKEKVTLTCRASQSIGTNIHWFQQKPGQSPKLLIKYASESISGVPSRFSGSGSGTDFTLTINSVEAEDAATYYCQQSNSWPYTFGQGTKLEIKRTVAAPSVFIFPPSDEQLKSGTASVVCLLNNFYPREAKVQWKVDNALQSGNSQESVTEQDSKDSTYSLSSTLTLSKADYEKHKVYACEVTHQGLSSPVTKSFNRGEC
notes: also called PDL-1 antibody AB01
In the case of B1, the EC50 (in general, the concentration that produces a half-maximal response) came out at 0.0155 nM in assay [1] and 3.82 nM in assay [3]. The binding result in assay [2] is “no binding (tested: 50 ug/ml, then 3-fold dilutions)”. In assay [4], the “EC50 of blocking PDL-1/PD1 in the luciferase (NFAT) reporter assay” value (“EC50 of blocking PDL-1/PD1” below) turned out to be 1.68 nM.

B2: anti-PDL-1/CTLA-4 recombinant bispecific antibody AB04 (bispecific antibody, human IgG1, kappa)
heavy: not shown
light: EIVLTQSPDTLSVTPKEKVTLTCRASQSIGTNIHWFQQKPGQSPKLLIKYASESISGVPSRFSGSGSGTDFTLTINSVEAEDAATYYCQQSNSWPYTFGQGTKLEIKRTVAAPSVFIFPPSDEQLKSGTASVVCLLNNFYPREAKVQWKVDNALQSGNSQESVTEQDSKDSTYSLSSTLTLSKADYEKHKVYACEVTHQGLSSPVTKSFNRGEC
notes: The scFv is at the C-terminus of the heavy chain; also called AB4
Regarding B2, the EC50 in assay [5] was 0.013 nM; in assay [6], 0.531 nM; in assay [1] it was 0.0324 nM; in assay [3], 1.84 nM; in assay [8], 0.6 nM. Moreover, the “EC50 as a multiple of that of AB02” value in assay [7] was in the range of 10 to 12 times. In assay [2], the binding result is reported as “binds”. The “EC50 of blocking PDL-1/PD1” value in assay [4] was determined as 1.53 nM.

B3: anti-PDL-1/CTLA-4 recombinant bispecific antibody AB03 (bispecific antibody, human IgG1, kappa)
heavy: not shown
light: EIVLTQSPDTLSVTPKEKVTLTCRASQSIGTNIHWFQQKPGQSPKLLIKYASESISGVPSRFSGSGSGTDFTLTINSVEAEDAATYYCQQSNSWPYTFGQGTKLEIKRTVAAPSVFIFPPSDEQLKSGTASVVCLLNNFYPREAKVQWKVDNALQSGNSQESVTEQDSKDSTYSLSSTLTLSKADYEKHKVYACEVTHQGLSSPVTKSFNRGEC
notes: The scFv is at the N-terminus of the heavy chain; also called AB003
As to B3, the concentration giving a half-maximal response (EC50) in assay [5] was 0.0162 nM; in assay [6], 0.0862 nM; in assay [1], 0.0215 nM; in assay [3], 2.6 nM; in assay [8], 0.107 nM. Moreover, in assay [2], the binding result was “binds”. Further, the “EC50 of blocking PDL-1/PD1” value in assay [4] amounted to 1.82 nM.
